Values of other authors in article PMC9887155, “Kinetics of cone specific G-protein signaling in avian photoreceptor cells” (Frontiers in Molecular Neuroscience, 2023).

Molecular target: Gtα (Bos taurus) (UniProt P04695)
Assay: SPR

Chain of Gtα (Bos taurus) (P04695 2-350): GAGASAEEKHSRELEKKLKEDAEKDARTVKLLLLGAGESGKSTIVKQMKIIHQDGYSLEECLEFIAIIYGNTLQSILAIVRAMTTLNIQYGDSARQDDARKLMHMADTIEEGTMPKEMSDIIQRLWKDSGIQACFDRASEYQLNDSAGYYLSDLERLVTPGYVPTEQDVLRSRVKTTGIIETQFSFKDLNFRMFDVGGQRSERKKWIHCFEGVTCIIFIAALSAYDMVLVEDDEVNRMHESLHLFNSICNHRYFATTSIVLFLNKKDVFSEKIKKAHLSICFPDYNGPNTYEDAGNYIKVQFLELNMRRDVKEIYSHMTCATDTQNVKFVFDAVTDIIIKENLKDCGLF
Chain of rhodopsin (dark-adapted) (P02699 whole entry): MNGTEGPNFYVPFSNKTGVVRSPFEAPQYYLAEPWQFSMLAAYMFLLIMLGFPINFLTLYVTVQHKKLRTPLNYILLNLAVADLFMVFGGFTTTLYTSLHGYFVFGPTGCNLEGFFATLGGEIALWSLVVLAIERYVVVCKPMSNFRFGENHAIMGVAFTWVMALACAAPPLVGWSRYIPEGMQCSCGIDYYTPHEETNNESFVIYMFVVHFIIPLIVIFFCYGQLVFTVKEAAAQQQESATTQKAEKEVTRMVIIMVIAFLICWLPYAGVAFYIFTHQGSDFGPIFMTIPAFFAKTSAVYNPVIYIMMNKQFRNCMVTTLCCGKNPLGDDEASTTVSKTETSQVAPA

**Q.** For “rhodopsin (dark-adapted) (from UniProt P02699)”, which Kd is on record?
**A.** The Kd was 360 nM.
